{
  "source": "patent US10215752",
  "about": "(MIT, dated 2019)",
  "binders": {"B1": {"name": "His-tag Jun (P05412) (other, human)", "chain": "MTAKMETTFYDDALNASFLPSESGPYGYSNPKILKQSMTLNLADPVGSLKPHLRAKNSDLLTSPDVGLLKLASPELERLIIQSSNGHITTTPTPTQFLCPKNVTDEQEGFAEGFVRALAELHSQNTLPSVTSAAQPVNGAGMVAPAVASVAGGSGSGGFSASLHSEPPVYANLSNFNPGALSSGGGAPSYGAAGLAFPAQPQQQQQPPHHLPQQMPVQHPRLQALKEEPQTVPEMPGETPPLSPIDMESQERIKAERKRMRNRIAASKCRKRKLERIARLEEKVKTLKAQNSELASTANMLREQVAQLKQKVMNHVNSGCQLMLTQQLQTFHHHHHH", "notes": "Capture protein, expressed on the chip by cell-free synthesis with a His-tag"}, "B2": {"name": "p16 (P42771) without His-tag (other, human, UniProt P42771 1-156, looked up)", "chain": "MEPAAGSSMEPSADWLATAAARGRVEEVRALLEAGALPNAPNSYGRRPIQVMMMGSARVAELLLLHGAEPNCADPATLTRPVHDAAREGFLDTLVVLHRAGARLDVRDAWGRLPVDLAEELGHRDVARYLRAAAGGTRGSNHARIDAAEGPSDIPD", "notes": "also called p16 (noHis)"}, "B3": {"name": "CDK4 (P11802) without His-tag (enzyme, human, UniProt P11802 1-303, looked up)", "chain": "MATSRYEPVAEIGVGAYGTVYKARDPHSGHFVALKSVRVPNGGGGGGGLPISTVREVALLRRLEAFEHPNVVRLMDVCATSRTDREIKVTLVFEHVDQDLRTYLDKAPPPGLPAETIKDLMRQFLRGLDFLHANCIVHRDLKPENILVTSGGTVKLADFGLARIYSYQMALTPVVVTLWYRAPEVLLQSTYATPVDMWSVGCIFAEMFRRKPLFCGNSEADQLGKIFDLIGLPPEDDWPRDVSLPRGAFPPRGPRPVQSVVPEMEESGAQLLLEMLTFNPHKRISAFRALQHSYLHKDEGNPE", "notes": "also called CDK4 (noHis)"}, "B4": {"name": "His-tag CDK4 (P11802) (enzyme, human)", "chain": "MATSRYEPVAEIGVGAYGTVYKARDPHSGHFVALKSVRVPNGGGGGGGLPISTVREVALLRRLEAFEHPNVVRLMDVCATSRTDREIKVTLVFEHVDQDLRTYLDKAPPPGLPAETIKDLMRQFLRGLDFLHANCIVHRDLKPENILVTSGGTVKLADFGLARIYSYQMALTPVVVTLWYRAPEVLLQSTYATPVDMWSVGCIFAEMFRRKPLFCGNSEADQLGKIFDLIGLPPEDDWPRDVSLPRGAFPPRGPRPVQSVVPEMEESGAQLLLEMLTFNPHKRISAFRALQHSYLHKDEGNPEHHHHHH", "notes": "as for B1"}, "B5": {"name": "His-tag p16 (P42771) (other, human)", "chain": "MEPAAGSSMEPSADWLATAAARGRVEEVRALLEAGALPNAPNSYGRRPIQVMMMGSARVAELLLLHGAEPNCADPATLTRPVHDAAREGFLDTLVVLHRAGARLDVRDAWGRLPVDLAEELGHRDVARYLRAAAGGTRGSNHARIDAAEGPSDIPDHHHHHH", "notes": "as for B1"}, "B6": {"name": "Jun (P05412) without His-tag (other, human, UniProt P05412 1-331, looked up)", "chain": "MTAKMETTFYDDALNASFLPSESGPYGYSNPKILKQSMTLNLADPVGSLKPHLRAKNSDLLTSPDVGLLKLASPELERLIIQSSNGHITTTPTPTQFLCPKNVTDEQEGFAEGFVRALAELHSQNTLPSVTSAAQPVNGAGMVAPAVASVAGGSGSGGFSASLHSEPPVYANLSNFNPGALSSGGGAPSYGAAGLAFPAQPQQQQQPPHHLPQQMPVQHPRLQALKEEPQTVPEMPGETPPLSPIDMESQERIKAERKRMRNRIAASKCRKRKLERIARLEEKVKTLKAQNSELASTANMLREQVAQLKQKVMNHVNSGCQLMLTQQLQTF", "notes": "also called Jun (noHis)"}},
  "key": {"[1]": {"target": "T1, Fos (P01100) without His-tag (human, UniProt P01100 1-380)", "T1 construct": "also called Fos (noHis)", "T1 sequence (P01100 whole entry, one chain of several)": "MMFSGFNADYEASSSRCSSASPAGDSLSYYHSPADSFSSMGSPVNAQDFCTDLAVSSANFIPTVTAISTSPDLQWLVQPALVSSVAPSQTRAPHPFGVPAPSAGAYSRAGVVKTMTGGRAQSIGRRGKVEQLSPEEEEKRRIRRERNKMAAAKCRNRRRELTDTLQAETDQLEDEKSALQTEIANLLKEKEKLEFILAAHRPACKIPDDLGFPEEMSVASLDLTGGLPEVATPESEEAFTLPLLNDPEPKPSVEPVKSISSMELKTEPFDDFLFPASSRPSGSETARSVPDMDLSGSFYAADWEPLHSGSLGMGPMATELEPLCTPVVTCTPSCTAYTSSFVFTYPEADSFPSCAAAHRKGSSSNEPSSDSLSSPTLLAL", "experiment": "label-free nIR fluorescence (1045 nm) of SWNT/chitosan Ni-NTA array spots; His-tag capture protein expressed on the spot, then cell-free expressed analyte protein without His-tag added; pair label = capture-analyte"}, "[2]": {"target": "B4", "experiment": "change of the Ni2+-SWNT distance on adding the analyte, calculated by the Förster equation from nIR fluorescence of the SWNT/chitosan Ni-NTA array"}, "[3]": {"target": "T2, His-tag Fos (P01100) (human, UniProt P01100 1-380)", "T2 construct": "Capture protein, expressed on the chip by cell-free synthesis with a His-tag", "T2 sequence (P01100 other isoform, or with tags, fused parts or gaps limits assumed)": "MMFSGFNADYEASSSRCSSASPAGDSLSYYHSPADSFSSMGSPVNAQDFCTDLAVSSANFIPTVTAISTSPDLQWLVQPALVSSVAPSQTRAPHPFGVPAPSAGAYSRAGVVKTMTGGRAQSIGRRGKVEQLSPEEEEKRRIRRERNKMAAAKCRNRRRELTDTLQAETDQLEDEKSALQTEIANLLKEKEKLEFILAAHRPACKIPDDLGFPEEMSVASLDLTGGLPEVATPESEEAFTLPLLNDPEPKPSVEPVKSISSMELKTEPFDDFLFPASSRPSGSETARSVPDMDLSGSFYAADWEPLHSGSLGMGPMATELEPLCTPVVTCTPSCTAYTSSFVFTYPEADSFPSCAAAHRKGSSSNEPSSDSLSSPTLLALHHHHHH", "experiment": "nIR fluorescence spectra (1000-1100 nm) of one SWNT/chitosan Ni-NTA array spot before expression, after the His-tag capture protein and after the analyte protein without His-tag; pair label = capture-analyte"}, "[4]": {"target": "B1", "experiment": "nIR fluorescence spectra (1000-1100 nm) of one SWNT/chitosan Ni-NTA array spot before expression, after the His-tag capture protein and after the analyte protein without His-tag; pair label = capture-analyte"}, "[5]": {"target": "B5", "experiment": "change of the Ni2+-SWNT distance on adding the analyte, calculated by the Förster equation from nIR fluorescence of the SWNT/chitosan Ni-NTA array"}, "[6]": {"target": "B1", "experiment": "nIR fluorescence spectra (1000-1100 nm) of one SWNT/chitosan Ni-NTA array spot before expression, after the His-tag capture protein and after the analyte protein without His-tag; pair label = capture-analyte", "remark": "listed apart in the source"}, "[7]": {"target": "T2, His-tag Fos (P01100)", "experiment": "nIR fluorescence spectra (1000-1100 nm) of one SWNT/chitosan Ni-NTA array spot before expression, after the His-tag capture protein and after the analyte protein without His-tag; pair label = capture-analyte", "remark": "listed apart in the source"}, "[8]": {"target": "B6", "experiment": "label-free nIR fluorescence (1045 nm) of SWNT/chitosan Ni-NTA array spots; His-tag capture protein expressed on the spot, then analyte protein without His-tag added; pair label = capture-analyte"}, "[9]": {"target": "T1, Fos (P01100) without His-tag", "experiment": "nIR fluorescence spectra (1000-1100 nm) of one SWNT/chitosan Ni-NTA array spot before expression, after the His-tag capture protein and after the analyte protein without His-tag; pair label = capture-analyte"}, "[10]": {"target": "T1, Fos (P01100) without His-tag", "experiment": "label-free nIR fluorescence (1045 nm) of SWNT/chitosan Ni-NTA array spots; His-tag capture protein expressed on the spot, then analyte protein without His-tag added; pair label = capture-analyte"}, "[11]": {"target": "B6", "experiment": "nIR fluorescence spectra (1000-1100 nm) of one SWNT/chitosan Ni-NTA array spot before expression, after the His-tag capture protein and after the analyte protein without His-tag; pair label = capture-analyte"}, "[12]": {"target": "T2, His-tag Fos (P01100)", "experiment": "change of the Ni2+-SWNT distance on adding the analyte, calculated by the Förster equation from nIR fluorescence of the SWNT/chitosan Ni-NTA array"}},
  "note": "Like-named read-outs stand apart in the source and are kept apart here.",
  "data": [
    {"binder": "B1", "values": [
      {"measurement": "binding result", "setting": "[1]", "result": "binds"}
    ]},
    {"binder": "B2", "values": [
      {"measurement": "Δd2", "setting": "[2]", "result": 0.0634, "unit": "nm"},
      {"measurement": "binding result", "setting": "[3]", "result": "no binding"},
      {"measurement": "binding result", "setting": "[4]", "result": "no binding"}
    ]},
    {"binder": "B3", "values": [
      {"measurement": "Δd2", "setting": "[5]", "result": 0.0517, "unit": "nm"},
      {"measurement": "binding result", "setting": "[6]", "result": "no binding"},
      {"measurement": "binding result", "setting": "[7]", "result": "no binding"}
    ]},
    {"binder": "B4", "values": [
      {"measurement": "binding result", "setting": "[8]", "result": "no binding"},
      {"measurement": "binding result", "setting": "[9]", "result": "no binding"}
    ]},
    {"binder": "B5", "values": [
      {"measurement": "binding result", "setting": "[10]", "result": "no binding"},
      {"measurement": "binding result", "setting": "[11]", "result": "no binding"}
    ]},
    {"binder": "B6", "values": [
      {"measurement": "Δd2", "setting": "[12]", "result": 0.0236, "unit": "nm"}
    ]}
  ]
}
